Assay results from paper PMC11154664, “Characterization of Complex Proteoform Mixtures by Online Nanoflow Ion-Exchange Chromatography-Native Mass Spectrometry” (Analytical Chemistry, 2024).

Target: the molecule itself
Test: native MS; online nanoflow strong cation exchange chromatography coupled to nESI native MS (nanoSCX-nMS); salt-mediated pH gradient from 50 mM ammonium acetate pH 5.0 to 250 mM ammonium acetate pH 8.5

B1: alcohol dehydrogenase (enzyme, UniProt P00330 1-348, looked up)
chain: MSIPETQKGVIFYESHGKLEYKDIPVPKPKANELLINVKYSGVCHTDLHAWHGDWPLPVKLPLVGGHEGAGVVVGMGENVKGWKIGDYAGIKWLNGSCMACEYCELGNESNCPHADLSGYTHDGSFQQYATADAVQAAHIPQGTDLAQVAPILCAGITVYKALKSANLMAGHWVAISGAAGGLGSLAVQYAKAMGYRVLGIDGGEGKEELFRSIGGEVFIDFTKEKDIVGAVLKATDGGAHGVINVSVSEAAIEASTRYVRANGTTVLVGMPAGAKCCSDVFNQVVKSISIVGSYVGNRADTREALDFFARGLVKSPIKVVGLSTLPEIYEKMEKGQIVGRYVVDTSK
notes: alcohol dehydrogenase (ADH), model oligomeric protein called a tetramer; also called ADH
- stoichiometry N: 4
